Data reported in patent US20230374147A1.

Target: His-tagged mouse BCMA (Acro Biosystems, BCA-M52H3) (mouse) (UniProt O88472)
Assay: ELISA, hybridoma supernatant, coated His-tagged antigen

His-tagged mouse BCMA (Acro Biosystems, BCA-M52H3) (mouse), sequence (O88472 1-49 limits assumed): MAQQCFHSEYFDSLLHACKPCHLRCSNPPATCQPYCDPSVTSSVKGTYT

B1: 539-SP5-D7 (antibody produced by the hybridoma) (antibody, V domains shown)
VH: EVMLVDSGGNLVKPGGSLKLSCAASGFTFSNYVISWVRQTPEKRLEWVATISTVGTNTYYPDSVRGRFTISRDNAENTLYLQMSSLRSEDTAIYYCSRHKYGYDDPSYAMDYWGQGTSVTVSS
VL: QLVLTQSSSASFSLGASAKLTCTLSSQHSTYTIEWYQQQPLKPPKYVMELKKDGSHSTGDGIPDRFSGSSSGADRYLSISNIQAEDEAIYICGVGDTVKEQFVYVFGGGTKVTVL
ELISA values (OD 450 nm): 0.025 OD
